Measurements taken from the nanobody polyreactivity screen of Harvey et al. (2022).

Experiment: yeast display, Sf9 membrane polyspecificity reagent, FACS + sequencing; frameworks hold sequencing errors
Method in brief: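 After 36–48 hours of galactose induction, yeast (Saccharomyces cerevisiae BJ5465) displaying a synthetic nanobody library were stained at 4 °C for 1 hour with 10% biotinylated, detergent-solubilized Sf9 membrane reagent. Streptavidin microbeads enriched the stained cells before FACS sorting into low and high (top ~1%) gates on anti-HA and streptavidin fluorescence. Each clone's polyreactivity label reflects its gate of origin.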

Sequence | polyreactivity (PSR sort gate)
KVQLVESGGGLVQAGGSLRLSCAASGSTFRTYAMGWYRQAPGKERELVADITWRGGSTYYADSVKGRFTISRDNAKNTDYFQMNSLKPEDTAVYYCATDRGPEVVLYVYWGQGTQVTVSS | low polyreactivity
KVQLVESGGGLVQAGGSLRLSCAASGTSSRYVMGLYRQSTGKERELVAAISWSGDSTYYADSVKGRFTISRDNAKNTVNLQMNSLKPEDTAVYYRAKDADFGLGATSYLEYDYWGQGTQVTVSS | low polyreactivity
KVQLVESGGGLVQAGGSLRLSCDASGSIFTLNAMGWYRQAPGKARELVAAISSGGGTYYSDSVKGRFTISRDNAKNTVYLQMNTLKPEDSAVYYCAAEHYILDDYLCDYDYWGQGTQVTVSS | high polyreactivity
LDQLVESGGGLVQAGGSLRLSCAASGSIFGPNAMGWNRKAPGKERELVAAISWSGASTYYADSVKGRFTITRDNEKNTVYLQMNSLKPEDTAVYYCAADYYGVSGSGYGYWGQGTQVTVSS | low polyreactivity
LLQLQESGGVLVQAGCRLRLICAASGSISVTRAMCWYSQAPGKERELVASTTGGSNNADSVNGRFTISRDNAKTTVYLQMNSLKPEDTAVYYCATEYYGPVYDLDYDYCGQGTQVTVSS | low polyreactivity
LVQLQESGGGLVQAGGSLRLSCAASGTITPGGYKGWYRQAPGKERELVASINVGGSTNYADSVKGRFTISRDNAKKTVYLQMKSLKPEDNAVYYCAVWGRNRLQLSYWGQGTQVTVSS | low polyreactivity
LVQLQESGGGLVQEGGSLRMSCAASGTISPGGYMGWYRQAPGKERELVASINVGGSTNYADSVKGRFTISRDNAKNTVYLQMNSLKPEDNAVYYCAVWGRNRLQLSYWGQGTQVTVSS | low polyreactivity
LVQLVESGGCLVQAGGSLRVSCAASGTIFQIKAMGWYRQAPGIEREKVATIRWRGSSTYYADSVKGRFTISRDNAKNTVYLQKNSLKPEDTAVYYSAARAGTLNSGGYYSWGQGTQVSVSS | high polyreactivity
LVQLVESGGGLVQAGGSLRLSCAASGRTFRLNALGWYRPAPGNERELVARITGSSGGSTYSADSVKGRFTISRDNAKNTVYLQMNSLKPEDTAVYYCAARYTPRGKRYDYWGQGTQVTGSS | high polyreactivity
LVQLVESGGGLVQAGGSLRLSCAASGSIFRYYVMGWYRQAPGKDRELVAAISTGDRTNYADSVKGRFTISRDNPKKTVYLQMNSQKPEDTAVYYCNADYVVGWARLEFNYWGQGTQVTVSS | low polyreactivity
LVQLVESGGGLVQAGGSLRLSCAASGSLFVVTAMGWYRQAPGKERELVAAFSSGGRTYYADSVKGRFTISRDNAKNTVYLQMNSVKPEDTAVYYCAAGGWRGHCYWGQGTQVTVSS | high polyreactivity
LVQLVESGGGLVQAGGSLSLSCAAYGRTFAKNAMGWYRQAPGKERDLVAVINRSGGSTYADSVKGRFTISRDNAKNTVYLQMNSLKPEDTAVYYWADYYFRSYSKTYIYPFDYWGQGSQVTVSS | low polyreactivity
LVQLVESGGRLVQAGGSLRLSCAASGNIFWYAMGWYRQAPGKERELVAAITYRGSTTYFAYSVKGRVTISRDKAKNTVYLQMNSLHPEDTAVYYCAARASYTRRHVGRPYDYWGQGTQVTVSS | high polyreactivity
PVQHVESGGGLVQAGGSLRLSCAASGSTLRTYAMGWYRQAPGKERELVAAISFSTTSTYYADSVKGRFTISRDNAKNTVYLQMNSLKPEDTADYYCAAGPRTRYQPDLPGCYYSWGQGTQVTVSS | high polyreactivity
PVQLVDSGGGLVQAGGSLRLSCAASGKIFFGYTMGWYRTAPGKERELVAAITYRGGRTYYADSEKGRFTISRDNAKHTVYLQMNSLKPEDTAVYYFAVGGSGYGRYGGGYARDYWGQGTQVTVSS | high polyreactivity
PVQLVESGGGLGQAGGSLSLRCAASGSIFTYYAMVWYRQAPGKERELVADISNSGSTYYADSVNGRFTISRDNAKNTVYLQMNRLKPEDSAVSSCNAEYHDLYDYWGQGTQVTVSS | low polyreactivity
PVQLVESGGGLVQAGGSLRLSCAASGFTFFYYAMGGYRQGPGKERELVAALNWSGGRTYYADSVKGRFTISRDNAKNTVYLQRNSLKPEDTAVYYCAVDRSWSTRYPAYPGGYWGQGTQVTVSS | high polyreactivity
PVQLVESGGGLVQAGGSLRLSCAASGFTLYDYAMGWYRPAPGKERELVAAISRSGGRTYYADSVKGRFTISRDNAKNTVYLQMNSLKPEDTAVYYCAADILRGQWYEYDYWGQGTQVTVSS | high polyreactivity
PVQLVESGGGLVQAGGSLRLSCAASGRIFPSYAMGWYRQAPGKERELVATINGDGGSTYYADSVKGRFTISRDNAKNTVYLQMNSLKPEDTAVYYCAKRYPFAAEYDYWGQGTQVTVSS | low polyreactivity
PVQLVESGGGLVQAGGSLRLSCAASGRTFGLNGKGWYRQSPGKEREFVATITGSGTSTYYADSVKGRFTISRDNAKNTVYLQMNSLKPEDSAVYFCAALSGLWGYHYYHEYYYWGQGTQVTVSS | low polyreactivity
PVQLVESGGGLVQAGGSLRLSCAASGRTFPFYGMGWYRQAPGKERELVAAISISGGSTYYADSVKGRFTISRDNAKNTVYVQMNSLKPEDTAVYYCAAVGPRSYGFGNGYWGQGTQVTVSS | high polyreactivity

Sequence | polyreactivity (PSR sort gate)
PVQLVESGGGLVQAGGSLRLSCAASGSTFRFYTMGWYRQAPGKERELVAAISGSGGSTYYADSVKGRFTISRDNAKNTVYLQMNSLIPEDPAVYFCAADKSRNASHRGYWGQGTQVTVSS | low polyreactivity
PVQLVESGGGLVQAGGSLRLSFAASGRTFWVYAMGWYRQAPGKERELVAAINRRGGGTYYADSVKGRFTISRDNAKNTVYLQMNSLKPEDTPVYYCAAVTRNQGSYRYYYWGQGTQVTVSS | high polyreactivity
QAQLEESGGGLVQAVGSLRLSCAASGRTFTNNDMGWYIQAPGKERELVAAIRWSGGSTYYADSVKGRFTISRDNAKNTVYFQMNSLKPEDTAVYYCAKGYGYVEAVIVQYDYWGQGTQVTVSS | low polyreactivity
QAQLKDSCGGLVQAGGSLRLSCPASGNNTSEYYMGCCRQAPGKGREFVDAIDYGGTTNYADNVKGRFTISRDNAKNTVYLQMNSLRPEDTALYYCAASWDTIGLFAYWGQGSQVTVSS | high polyreactivity
QAQLVESGGGLVQAGRSLRLSCAASGSTFRWYAMGWYRQAPGKERELVAAITSSGSTYYADSVKGRFTISRDNAKTTVYLQMNSLKPEDTAVYYCAARANGYWNTYEHDYWGQGIQVTVSS | low polyreactivity
QAQLVESGGGLVQSGGSLRLSCAASGSIFRPYAMGWYRQAPGKERELVAAISSSGGGTYYADSVKGRFTISRDNAKNTVYLQMNILKPEDTSVYLYGSWGQGTQVNVSS | low polyreactivity
QDHLVESGGGLVQAGGSLRLSCAASGRTFGRNAMGWYRQAPGKERDFVAAITSSGGSTYYADSVKGRFTISRDNAKNTVYFQMNSLKPEDSAVFYCARSTRYYSWRRMDYWGQGTQVTVSS | high polyreactivity
QDHLVESGGGLVQAGGSLRLSCAASGSISWKNAMGWYRQAPGKERELVAAISSTVTYYADSVKGRFTISRDNAKNTVYLQMNSLKPEDTAVYYCAAVYLGYTTLYTGDYCGQGTQVTVSS | low polyreactivity
QDLLVDSGGGLVQAGGSLRVSCAASGYTRFYAMGWYRQAPGKERELVAAISSSGGTTYYADSVKGRFTISRDNAKNNVYLQMNSLKPEDTAVYYCAKFLSYSRTLYDYWGQGTQVTVSS | high polyreactivity
QDLLVESGGGLLQAGGSLRLICAASGYTFTYYAMGWYRQAPGKERELVAAINYSGGRTDYADSVKGRFTLSRDNAKNTVYLQKNSMNPEDTAVYYCAAYTRNGDFDYWGQGTQVTVSS | high polyreactivity
QDLLVESGGGLVQAGGSLRLSCAASGSIFDDYAMGWYRQAPGKERELVAAISSSGTSTYYADSVKGRFTISRDHAKNTVYLQMNSLIPEYTAVYYCAARSAILKSGYLKDYWGQGTQVTVSS | low polyreactivity
QDPLEESGGGLVQAGGSLRLSCAASGFTFTDYAMGWTRQAPGKERQLVAVISRSGGSTNYADSVKGRFTISRDKAKNTVYLQMNCLKPEDTAVYYCNAGKYLYRHGFLSSGDMYYWGQGTQVTVSS | high polyreactivity
QDQHEESGGGLVQAGGSLRLICAASGLIFPRYAMGWYRPAPGKERELVAAITRGGSTYYADSVKGRFTISRDNAKNTVYLQMNSLKPEDTAVYYCNAELPVHWSWYDYWGQGTQVTVSS | low polyreactivity
QDQHGESGGGLVQAGGRLRLSGAASGSTFPGNAMGWYRQAPGKERELVAAITSGGRTYYADSVKGRFTISRDNAKNTVYLQMNSLKPEDTAVYYCAVSTPIQRHGETYAKFDYWGQGTQVTVSS | low polyreactivity
QDQHGESGGGLVQAGGSLRLSCAASGYTFLRNDMGWYRQPHGKVRELVAAISYSGGGTYYADSVKGRFTISRDNAKITVYLQMNSLKPEDTAVYYCNVAQRYYGNFFSSRYEYWGQGTQVTVSS | low polyreactivity
QDQHVESAGGLVQAGGSRRLSCAASESMFSTYPMGCYSQAPGTESELVATIRRGGSTYYADSVKGRFTISRDNAKNTVYLQMNSLKPEDSAVYYCAATVSSYPYYRYYSWGQGTQVTVSS | high polyreactivity
QDQHVESGGGLVQAGGSLRLSCAASGFIISYYDMGWYRQPPGHESELVATIDWSGGSTYYADSVKGRFTISRDNAKNTVYLQLNSLKPEDTAVYYCNADWIFGSAPSGRYKYDYWGQGTQVTVSS | low polyreactivity
QDQHVESGGGLVQAGGSLRLSCAASGGIFYTYTMGWYRQAPGKEREFVAAITRSGDRTYYADSVKGRFTISRDNAKNTGYLQMNSLKPEDTAVYYCNTVTRKNPSGLALDEYNYCGQGTQVTVSS | high polyreactivity
QDQHVESGGGLVQAGGSLRLSCAASGIIFDYNAMGWYRQAPGKERELVAAITSTDNTNYADSVKGRLTISRDNAKNTVYLQMNSLKPEDTAVYYCNSDYWLSVVYAMDYWGQGTQVTVSS | low polyreactivity
QDQHVESGGGLVQAGGSLRLSCAASGLTFGTYAKGWYRQAPGKERELVAAITTGARTYFADSVKGRFTISRDNAKNTVYLKMNSLKPEDTAVYYCAAYKFYSEYEYWGQGTQVTVSS | high polyreactivity
